Changes are numbered by the printed parent chain.
B1: LM30E, ibalizumab light chain mutant with an N-linked glycosylation site at position 30E (antibody, human IgG1, kappa, V domains shown)
VH: QVQLQQSGPEVVKPGASVKMSCKASGYTFTSYVIHWVRQKPGQGLDWIGYINPYNDGTDYDEKFKGKATLTSDTSTSTAYMELSSLRSEDTAVYYCAREKDNYATGAWFAYWGQGTLVTVSS
VL: DIVMTQSPDSLAVSLGERVTMNCKSSQSLLYSTNNATYLAWYQQKPGQSPKLLIYWASTRESGVPDRFSGSGSGTDFTLTISSVQAEDVAVYYCQQYYSYRTFGGGTKLEIKR
B2: LM65, ibalizumab light chain mutant with an N-linked glycosylation site at position 65 (antibody, human IgG1, kappa, V domains shown)
VH: B1 VH
VL: B1 VL with N35Q, A36K, T37N, S71N, G72A, S73T
B3: LM52, glycan-modified anti-CD4 IgG1 antibody with an N-linked glycan at light chain position 52 (antibody, V domains shown)
VH: B1 VH
VL: B1 VL with N35Q, A36K, T37N, S58N, T59S, R60T
B4: LM67, ibalizumab light chain mutant with an N-linked glycosylation site at position 67 (antibody, human IgG1, kappa, V domains shown)
VH: B1 VH
VL: B1 VL with N35Q, A36K, T37N, S73N, G74A
B5: LM54, ibalizumab light chain mutant with an N-linked glycosylation site at position 54 (antibody, human IgG1, kappa, V domains shown)
VH: B1 VH
VL: B1 VL with N35Q, A36K, T37N, R60N, E61A, S62T
B6: LM60, ibalizumab light chain mutant with an N-linked glycosylation site at position 60 (antibody, human IgG1, kappa, V domains shown)
VH: B1 VH
VL: B1 VL with N35Q, A36K, T37N, D66N, R67A, F68T
B7: LM53, ibalizumab light chain mutant with an N-linked glycosylation site at position 53 (antibody, human IgG1, kappa, V domains shown)
VH: B1 VH
VL: B1 VL with N35Q, A36K, T37N, T59N, R60A, E61T
B8: LM76, ibalizumab light chain mutant with an N-linked glycosylation site at position 76 (antibody, human IgG1, kappa, V domains shown)
VH: B1 VH
VL: B1 VL with N35Q, A36K, T37N, S82N, S83A, V84T

Columns and labels:
[1] = target: T1, recombinant sCD4 comprising the full-length extracellular domain of human CD4 (human, UniProt P01730 26-396); experiment: SPR (Biacore), antibody amine-coupled on the chip, human sCD4 as analyte, 25 C, 1:1 Langmuir fit
T1 construct: also called human soluble CD4; human sCD4 protein
Method: (§1) Binding affinity analyses were performed with a Biacore T3000 optical biosensor (GE Healthcare, Piscataway, N.J.). Immobilization of ibalizumab and all the glycan variants were performed following the standard amine coupling procedure. Briefly, carboxyl groups on the sensor chip surface were activated by injection of 35 μL of a solution containing 0.2 M N-(3-dimethylaminopropyl)-N-ethylcarbodiimide and 0.05 M Nhydroxysuccinimide at a flow rate of 5 μL/minute. Next, ibalizumab or its mutant variant, at a concentration of 2 μg/mL in 10 mM sodium-acetate buffer, pH 4.5, was allowed to flow over the chip surface at a rate of 10 μL/minute until the desired level of response units of reacted protein (150-200 RU) was achieved. After unreacted protein was washed out, excess active ester groups on the sensor surface were capped by the injection of 35 μL of 1 M ethanolamine, pH 8.0, at a flow rate of 5 μL/minute. As background to correct instrument and buffer artifacts, a reference was generated under the same conditions with omission of the protein ligand. Binding experiments were performed at 25° C. in HBS-EP buffer (0.01 M HEPES, 0.15M NaCl, 3 mM EDTA, 0.005% vol/vol surfactant P20 (GE Healthcare). Binding kinetics were measured by passing various concentrations of analyte (human sCD4 protein) over the chip surface at a flow rate of 30 μL/minute for 3 min. Dissociation of bound analytes was monitored while the surface was washed for 10 min. Remaining analytes were removed at a flow rate of 50 µL/minute with two 30-sec injections of 10 mM glycine-HCl, pH 2.0. For kinetics data analysis, the kinetic parameters were determined by collectively fitting the overlaid sensograms […] using the BIAevaluation 4.1 software to the 1:1 Langmuir binding model.
(§2) We next evaluated the kinetics of binding of these ibalizumab LMs to human soluble CD4 (sCD4) by surface plasmon resonance. In a Biacore assay using sCD4 as the analyte, WT ibalizumab and LMs bound sCD4 with similar binding kinetics.

[2] = target: T1, recombinant sCD4 comprising the …; experiment: SPR (Biacore), sCD4 as analyte; member of the six by its KD in Table 1
Method: as §1, §2

Binder | Kd [1] | koff [1] | kon [1] | fold of KD against wild-type ibalizumab [2]
B1 | 1.4 nM | 0.00015 s⁻¹ | 110000 M⁻¹ s⁻¹ | –
B2 | 1.5 nM | 0.00049 s⁻¹ | 330000 M⁻¹ s⁻¹ | –
B3 | 0.35 nM | 0.00016 s⁻¹ | 460000 M⁻¹ s⁻¹ | ≤ 2 fold
B4 | 0.8 nM | 0.0002 s⁻¹ | 250000 M⁻¹ s⁻¹ | ≤ 2 fold
B5 | 0.73 nM | 0.00027 s⁻¹ | 370000 M⁻¹ s⁻¹ | ≤ 2 fold
B6 | 0.19 nM | 8.3e-05 s⁻¹ | 440000 M⁻¹ s⁻¹ | ≤ 2 fold
B7 | 0.45 nM | 0.00013 s⁻¹ | 290000 M⁻¹ s⁻¹ | ≤ 2 fold
B8 | 0.28 nM | 0.00014 s⁻¹ | 500000 M⁻¹ s⁻¹ | ≤ 2 fold

— patent US20150166662A1 (ROCKEFELLER UNIVERSITY, published 2015)
